Here are results for ten molecules from patent US20250179196A1 (Janssen / Centocor, published 2025).

To fix the notation:
T1: rat IL-23R extracellular domain (ECD) protein (rat)
T1 construct: also called rat IL-23R ECD; F1LX96 amino acids 24-354
T1 chain: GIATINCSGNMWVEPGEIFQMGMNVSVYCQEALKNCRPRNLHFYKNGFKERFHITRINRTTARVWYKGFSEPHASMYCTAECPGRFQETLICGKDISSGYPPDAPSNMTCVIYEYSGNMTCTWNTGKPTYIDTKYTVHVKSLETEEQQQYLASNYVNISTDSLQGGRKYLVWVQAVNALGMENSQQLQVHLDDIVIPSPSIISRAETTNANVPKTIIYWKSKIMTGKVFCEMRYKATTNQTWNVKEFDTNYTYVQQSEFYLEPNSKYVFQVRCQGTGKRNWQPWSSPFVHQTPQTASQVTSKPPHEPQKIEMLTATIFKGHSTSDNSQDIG

T2: Recombinant human IL-23 receptor (IL-23R) extracellular domain (ECD) protein (human, UniProt Q5VWK5 24-355)
T2 construct: also called human IL-23R ECD; hu IL-23R ECD
T2 sequence: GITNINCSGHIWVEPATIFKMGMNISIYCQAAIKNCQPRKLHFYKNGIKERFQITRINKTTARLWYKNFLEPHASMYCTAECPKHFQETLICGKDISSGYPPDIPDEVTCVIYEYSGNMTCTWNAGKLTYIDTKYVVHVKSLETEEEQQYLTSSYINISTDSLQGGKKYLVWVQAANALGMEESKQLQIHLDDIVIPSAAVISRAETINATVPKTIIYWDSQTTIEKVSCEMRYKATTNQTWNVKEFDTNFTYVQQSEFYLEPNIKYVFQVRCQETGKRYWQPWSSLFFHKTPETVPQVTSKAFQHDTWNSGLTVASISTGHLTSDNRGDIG

B1: I23RB65 (antibody, mouse IgG2a, kappa, V domains shown)
VH: EVQLQQSGPELVKPGASVKISCKASGYTFTDHTMDWVKQSHGKSLEWIGYIYPKSGNAAYSQKFKSEATLTVDKSSSTAYMEFHSLTSEDSAVYYCARWGLRRDGFTYWGQGTSVTVSS
VL: QIVLTQSPASLAVSLGQRATISCRASQSVSTSSYNYIHWYQQKPGQPPKLLIKYASNLESGVPARFSGSGSGTDFTLNIHPVEEDDTATYYCQHTWEIPYTFGSGTKLEIKR
notes: mouse immunization; mouse IgG2a/kappa
B2: I23RB94 (antibody, mouse IgG2a, kappa, V domains shown)
VH: DVQLQESGPELKKPGETVKISCKASGYTFTNYGMNWVRQAPGKSLKWMGWINTNTGEPAYAEEFKGRFAFSLETSASTAYLQINNLKNEDMATYFCARVRQTARATRGYFDVWGTGTTVTVSS
VL: DIVMTQSHKFMSTSVGDRVSITCKASQDVNTAVAWYQQKPGQSPKLLIYSAFYRYPGVPDRFTGSGSGTDFTFTINSVQAEDLAVYCCQQHYTSPLTFGDGTRLEIKR
notes: as for B1
B3: I23RB156 (antibody, mouse IgG2a, kappa, V domains shown)
VH: QVQLKESGPGLVAPSQSLSITCTVSGFSLTSYAINWVRQPPGKGLEWLGVIWTGGGTNYNSVFKSRLSISKDNSKSQIFLKMISLQTDDTARYYCARNRDYSNYRWYFDVWGAGTTLTVSS
VL: B2 VL with N30S, Q42R, P56T, N76G, C87Y, T93S, S94I, D100A, R103K, I106L
notes: as for B1
B4: I23RB153 (antibody, mouse IgG2a, kappa, V domains shown)
VH: EVKLVESGGGLVQPGGSLKLSCAASGFTFSSDTMSWVRQTPEKRLELVAEISSNGGSTYHIDTVKGRFTISRDNAKNTLYLQMSSLKSEDTAMYYCASPGYPWFAYWGQGTTVTVSA
VL: DIVMTQSHRFMSTSVGERVSITCKASQDVGNAVAWYQQKPGQSPKLLIYWTSTRHNGVPDRFTGSGSGTDFTLTISNVQGEDLADYFCQQYNRYPLTFGSGTKLEIKR
notes: as for B1
B5: I23RB155 (antibody, mouse IgG2a, kappa, V domains shown)
VH: QVQLKESGPGLVKPSQSLSLTCSVTGYSITSGHSWNWIRQFPGNKLEWMGYISYDGTNDYNPSLKNRISITRDTSKNQFFLNLNSVTTEDTVTYYCARGGGYYGGTYRVFADWGQGTTLTVSS
VL: QIVLSQSPASLAVSLGQRATISCRTSESVDTYGNSFIYWYQQKPGQPPKLLIYRASNLESGIPARFSGSGSRTDFTLTINPVEADDVATYYCQQGNKDPYTFGSGTKLEMKR
notes: as for B1
B6: I23RB160 (antibody, mouse IgG2a, kappa, V domains shown)
VH: QVQLKESGPDLVKPSQSLSLTCTVTGYSITSGYNWHWIRQFPGNKLEWMGYIHYSSGTIYNPSLKSRISITRDTSKNQFFLQLNSVTTEDTGTYYCARQLGLKAMDYWGQGTSVTVSS
VL: DIVMTQSHKFMSTSVGDRVSITCKASQDVRTAVAWYQQKPGQSPKLLIHSASYRYTGVPDRFTGSGSGTDFTFTISSVQVEDLAVYYCQQHYTTPYTFGSGTKLEIKR
notes: as for B1
B7: I23RB150 (antibody, mouse IgG2a, kappa, V domains shown)
VH: QIQLVQSGPELKKPGETVKISCKASAYTFTNYGMNWVKQAPGKGLKWMGWIKTNTGEPTYAEEFKGRFAFSLETSASTAYLQINNLKNEDTATYFCARSRQLGLRYYFDYWGQGTTLTVSS
VL: B6 VL with D17G, R30S, K45R, H49Y, V80A, Y86F, T93S, K103R
notes: as for B1
B8: I23RB148 (antibody, mouse IgG2a, kappa, V domains shown)
VH: DVQLQESGPDLVKPSQSLSLTCTVTGYSITSGYNWHWIRQFPGNKLEWMGYIHSSGTTNYSPSLRSRLSITRDTSKNQFFLQLNSVTTEDTATYYCTRQLGLKAMEYWGQGTTLTVSS
VL: B6 VL with I21L, D28E, S43P, H49Y, S76I, V80A, T97S
notes: as for B1
B9: I23RB144 (antibody, mouse IgG2a, kappa, V domains shown)
VH: EVQLQQSGPELVKPGASVKMSCKASGYTFTSYIIHWVKQKPGQGLEWIGYIDPYNDDTKYNEKFKGKATLTSDKSSSTAYMEFSSLTSEDSAVYYCARLGSINYYDGSYFDYWGQGTSVTVSS
VL: DIVMTQSPLTLSVIIGQSASISCKSSQSLLDSDGKTYLNWLLQRPGQSPKRLMYLVSKLDSGVPDRFTGSGSGTDFTLKISRVEAEDLGVYYCWQGIHFPLTFGSGTRLEIKR
notes: as for B1
B10: I23RB42 (antibody, mouse IgG2a, kappa, V domains shown)
VH: EVQLQQSGAELVKPGASVKISCKASGYSFTDYIMNWVKQSHGKSLEWIGNINPYFGFTSYNQEFKGKATLTVDKSSSTAYMLLNSLTSEDSAVYYCSRGSYYGYETFFDYWGQGTTLTVSS
VL: DIVLTQTAPSVPVTPGESVSISCRSSKSLLHSNGNTYLYWFLQRPGQSPQLLIYRMSNLASGVPDRFSGSGSGTAFTLRISRVEAEDVGVYYCMQHLEYPYTFGSGTRLEIKR
notes: as for B1

Positions count from the first letter of the chain named.

The target in the first test is T1, rat IL-23R extracellular domain (ECD) …. Briefly: SPR Biacore 8K, supernatant. The procedure, abridged:
(§1)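 Kinetics fitted to a 1:1 Langmuir model gave on-rate, off-rate and KD. Human or rat IL-23R ECD flowed over captured mAbs (~150 RU) at 0.8–500 nM, 5-fold dilutions: 3 min binding at 50 μL/min, then 30 min buffer, 25 °C, HBS-P+ plus 100 μg/ml BSA.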
As to B1, the binding result was “no binding (tested: 500 nM)”.
For B2, the binding result is recorded as “no binding (tested: 500 nM)”.
On to B3, for which the binding result is listed as “no binding (tested: 500 nM)”.
Usually Kd stands for the constant that tells how readily two partners part at equilibrium. The koff is the rate constant with which the complex falls apart. One may read the kon as a measure of how fast the partners come together. The molecule B4 gave a Kd of 92.1 nM, an off-rate constant (koff) of 0.00548 s⁻¹ and a kon of 59500 M⁻¹ s⁻¹.
Consider B5, for which the binding result is “no binding (tested: 500 nM)”.
For the molecule B6, the binding result was “no binding (tested: 500 nM)”.
For B7, the binding result was “no binding (tested: 500 nM)”.
Turning to B8, the binding result is “no binding (tested: 500 nM)”.
Take B9: the binding result is listed as “no binding (tested: 500 nM)”.

The target in a further test is T2, Recombinant human IL-23 receptor …. Put plainly: SPR Biacore 8K, purified, analysis 2. As for the experimental part: (§2) Affinity by SPR using Biacore 8K. Affinity measurements using Surface Plasmon Resonance (SPR) were performed using a Biacore 8K system (Cytiva). […] Approximately 9000-10000 RU (response units) of mAbs were immobilized. The kinetic experiments were performed at 25° C. in running buffer 1× of (HBS-P+ Buffer 10× (Cytiva #BR100671)+100 μg/ml BSA). To perform kinetic experiments, approximately 150 RU of mAbs were captured followed by injections of human IL-23R or rat IL-23R at concentrations ranging from 0.8 nM to 500 nM (in a 5-fold serial dilution). The association phase was monitored for 3 minutes at 50 μL/min, then followed by 30 minutes of buffer flow (dissociation phase). […] The collected data were processed using Biacore insight Evaluation software (Version 3.0.12.15655). The kinetic analysis of the data was performed using a Langmuir 1:1 binding model. The result for each mAb was reported in the format of Ka (On-rate), Kd (Off-rate) and KD (equilibrium dissociation constant).
(Surface plasmon resonance follows binding to a sensor surface in real time, without labels.)
Consider B1, for which the Kd is less than 0.0723 nM, the koff was less than 2.89e-05 s⁻¹ and the on-rate constant (kon) turned out to be 400000 M⁻¹ s⁻¹.
In the same order, the values of B2 are 1.15 nM, 0.000753 s⁻¹ and 656000 M⁻¹ s⁻¹.
As to B10, the Kd is 0.117 nM, the koff amounted to 6.25e-05 s⁻¹ and the kon was 535000 M⁻¹ s⁻¹.

For a further test the target is unchanged. Briefly: SPR Biacore 8K, supernatant, analysis 1. The procedure, abridged: as §1
As to B3, the equilibrium dissociation constant (Kd) turned out to be 0.403 nM, the koff was 0.000218 s⁻¹ and the kon was 542000 M⁻¹ s⁻¹.
For the molecule B4, the Kd was found to be 1.64 nM, the koff is 0.000226 s⁻¹ and the kon worked out at 138000 M⁻¹ s⁻¹.
Take B5: the Kd is less than 0.0784 nM, the koff is less than 2.89e-05 s⁻¹ and the on-rate constant (kon) stood at 369000 M⁻¹ s⁻¹.
Regarding B6, the dissociation constant (Kd) stood at 16.9 nM, the off-rate (koff) worked out at 0.00955 s⁻¹ and the on-rate constant (kon) stood at 567000 M⁻¹ s⁻¹.
Taken in the same sequence, the figures for B7 were 96.5 nM, 0.0329 s⁻¹ and 341000 M⁻¹ s⁻¹.
Consider B8, for which the equilibrium dissociation constant (Kd) was 0.874 nM, the koff was 0.000459 s⁻¹ and the kon is 525000 M⁻¹ s⁻¹.
Take B9: the Kd was determined as 30.6 nM, the koff was 0.00272 s⁻¹ and the association rate constant (kon) came out at 89000 M⁻¹ s⁻¹.

The target is the same in the next test. Briefly: SPR Biacore 8K, purified, analysis 1. As for the experimental part:
as §2
As to B1, the Kd was less than 0.0597 nM, the koff is less than 2.89e-05 s⁻¹ and the on-rate (kon) was 484000 M⁻¹ s⁻¹.
In the same order, the values of B2 are 0.8 nM, 0.00063 s⁻¹ and 787000 M⁻¹ s⁻¹.
For the molecule B10, the dissociation constant (Kd) worked out at 0.0725 nM, the koff came to 5.76e-05 s⁻¹ and the kon was found to be 795000 M⁻¹ s⁻¹.

The next test has the same target. Put plainly: SPR Biacore 8K, supernatant, analysis 2. The procedure, abridged:
as §1
For the molecule B1, the Kd amounted to 0.11 nM, the koff stood at 4.58e-05 s⁻¹ and the kon is 416000 M⁻¹ s⁻¹.
Regarding B2, the Kd worked out at 1 nM, the off-rate constant (koff) worked out at 0.000686 s⁻¹ and the kon came out at 685000 M⁻¹ s⁻¹.
Take B3: the Kd was determined as 0.588 nM, the koff is 0.000259 s⁻¹ and the kon is 441000 M⁻¹ s⁻¹.
With B4, the Kd was found to be 2.33 nM, the koff came out at 0.000318 s⁻¹ and the kon turned out to be 137000 M⁻¹ s⁻¹.
For B5, the equilibrium dissociation constant (Kd) is less than 0.121 nM, the dissociation rate constant (koff) was less than 2.89e-05 s⁻¹ and the association rate constant (kon) was found to be 239000 M⁻¹ s⁻¹.
With B10, the Kd worked out at 0.108 nM, the koff amounted to 6.29e-05 s⁻¹ and the kon turned out to be 582000 M⁻¹ s⁻¹.
For B6, the Kd was 13.8 nM, the off-rate (koff) turned out to be 0.0142 s⁻¹ and the kon stood at 1.02e+06 M⁻¹ s⁻¹.
Consider B7, for which the Kd is 112 nM, the off-rate (koff) was determined as 0.0376 s⁻¹ and the on-rate (kon) worked out at 334000 M⁻¹ s⁻¹.
Taken in the same sequence, the figures for B8 were 0.766 nM, 0.000382 s⁻¹ and 498000 M⁻¹ s⁻¹.
As for B9, the Kd was found to be 53.3 nM, the off-rate constant (koff) amounted to 0.00277 s⁻¹ and the kon is 52000 M⁻¹ s⁻¹.
